Measurements published in US20130129719, “HER2 NUCLEIC ACID APTAMERS” (UNIVERSITY OF IOWA RESEARCH FOUNDATION, published 2013).

T1: glyoxylase (negative control protein) (Homo sapiens, UniProt Q04760 Q04760:2-184)
T1 sequence: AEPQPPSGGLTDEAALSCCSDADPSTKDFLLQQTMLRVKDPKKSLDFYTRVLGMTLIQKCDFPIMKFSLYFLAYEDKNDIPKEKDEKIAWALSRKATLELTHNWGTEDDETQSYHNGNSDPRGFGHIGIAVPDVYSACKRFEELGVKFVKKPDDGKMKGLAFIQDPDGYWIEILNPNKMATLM

B1: E1 (ssRNA)
RNA: GGGAGGACGAUGCGGUCCUGUCGUCUGUUCGUCCCCAGACGACUCGCCCGA
B2: D1 (ssRNA)
RNA: GGGAGGACGAUGCGGAUGUAUGUUGGGAGCCACGCCAGACGACUCGCCCGA
B3: A2 (ssRNA)
RNA: GGGAGGACGAUGCGGGACUGUAUGGGGCUCUGUGCAGACGACUCGCCCGA
B4: C1 (ssRNA)
RNA: GGGAGGACGAUGCGGCUGUCUACCUUCUACUGCCGCAGACGACUCGCCCGA
B5: B1 (ssRNA)
RNA: GGGAGGACGAUGCGGUCUGUUGUGCUUGAUAUGCCCCAGACGACUCGCCCGA

Molecular target: HER2 extracellular domain (HER2-ECD) (Rattus norvegicus, UniProt P06494 P06494:23-654)
Assay: FP; selection buffer, room temperature 30 min, protein up to 1 uM
Conditions: label: 5'-FAM
Method: (§1) FIG. 3. Binding of HER2-aptamers to recombinant HER2-ECD protein. RNA aptamers labeled with FAM at the 5′ end were incubated with recombinant rat HER2-ECD protein in increasing concentrations up to 1 μM at room temperature for 30 minutes in 100 μL reaction volumes. A non-target protein (glyoxylase) is used as a negative control in these assays (Control protein). The binding reaction is performed in the buffer in which the selection was performed. Fluorescence polarization (FP) values for each RNA concentration are read using an Analyst HT plate reader by LJL Biosystems. FP is given by P=(V−H)/(V+H), where V is the vertical component of polarized light, and H is the horizontal component of polarized light. Values of polarization range from 0 to 500 mP, with 0 mP being no binding of the RNA and 500 mP representing maximal binding. The curve is fit with a one-site binding model using non-linear regression software. This confirms the binding of the HER2 aptamers to […] HER2 using Fluorescence Polarization. […] This experiment was done several times and was reproducible.
(§2) The inventors next verified that several of the internalizing aptamers were binding specifically to HER2 using fluorescence polarization (FP). This was done by measuring binding of the RNAs to recombinant purified rat HER2-ECD (extra cellular domain) (FIG. 3). […] A control protein (human glyoxylase) was used as a negative control for binding in these studies.

Sequence of HER2 extracellular domain (HER2-ECD) (P06494 23-654, one chain of several): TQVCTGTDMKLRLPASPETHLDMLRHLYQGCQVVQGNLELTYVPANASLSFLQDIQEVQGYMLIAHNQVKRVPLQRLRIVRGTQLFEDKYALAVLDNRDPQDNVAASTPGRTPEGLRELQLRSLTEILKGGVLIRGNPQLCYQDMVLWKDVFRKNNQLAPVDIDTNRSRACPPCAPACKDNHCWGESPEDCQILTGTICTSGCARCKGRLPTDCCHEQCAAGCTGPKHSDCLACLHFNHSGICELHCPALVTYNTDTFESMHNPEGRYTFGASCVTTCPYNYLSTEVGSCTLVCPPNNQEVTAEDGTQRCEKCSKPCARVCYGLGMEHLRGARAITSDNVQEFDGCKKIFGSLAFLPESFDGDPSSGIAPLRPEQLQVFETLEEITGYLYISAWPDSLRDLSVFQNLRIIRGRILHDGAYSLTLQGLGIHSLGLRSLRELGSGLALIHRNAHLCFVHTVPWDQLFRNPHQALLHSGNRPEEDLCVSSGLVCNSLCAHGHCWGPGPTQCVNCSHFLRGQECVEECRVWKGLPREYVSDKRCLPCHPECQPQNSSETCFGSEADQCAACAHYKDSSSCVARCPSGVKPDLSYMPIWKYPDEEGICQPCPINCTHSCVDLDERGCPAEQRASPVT

Binder | binding result
B1 | binds
B2 | binds
B3 | binds
B4 | binds
B5 | binds

Molecular target: T1, glyoxylase (negative control protein)
Assay: FP; specificity control, room temperature
Conditions: tags: His-tag; label: 5'-FAM
Method: as §1, §2

Binder | binding result
B1 | no binding
B2 | no binding
B3 | no binding
B4 | no binding
B5 | no binding
